Measured values as given in patent US20200048342A1 (INSERM, published 2020).

Key:
[1] = molecular target: T1, Biotinylated NOTCH3 657-848 (human, UniProt Q9UM47 657-848, biotinylated (site not stated)); test: Octet RED (BLI), biotinylated NOTCH3 657-848 on streptavidin tips, 5E1 at 333 nM to 3.3 nM; human NOTCH3 (657-848), Octet
T1 construct: also called human NOTCH3 (Octet analysis)
T1 sequence: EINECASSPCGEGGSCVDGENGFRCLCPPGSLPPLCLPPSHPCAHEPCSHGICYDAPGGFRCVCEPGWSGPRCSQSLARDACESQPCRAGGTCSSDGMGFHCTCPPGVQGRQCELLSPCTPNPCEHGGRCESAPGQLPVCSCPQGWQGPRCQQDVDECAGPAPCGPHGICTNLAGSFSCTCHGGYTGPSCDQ
Experimental: (§1) FIGS. 1A-1B show 5E1 binding to human NOTCH3 using OCTET analysis. (A) Kinetic analysis was performed using the Octet RED technology from ForteBio according to the manufactures instruction. Biotinylated NOTCH3 657-848 was immobilized on streptavidin tips at a level of approximately 3 RU each. (B) Subsequent association and dissociation of 5E1 antibody was analyzed at concentrations in the range from 333 nM to 3.3 nM. Data analysis was subsequently done using the ForteBio Data Analysis 7.0 software (Example 3).
as §1, with “Kinetic” for “FIGS. 1A-1B show 5E1 binding to human NOTCH3 using OCTET analysis. (A) Kinetic”, “each.” for “each. (B)”, “3,3” for “3.3”, “(FIG. 1).” for “(Example 3).”

[2] = molecular target: vascular Notch3ECD deposits of TgPAC-Notch3R169C mice; test: in vivo target engagement, co-immunolabelling with Alexa 488-conjugated 5E1 for total Notch3ECD deposits, 2 months old TgPAC-Notch3R169C mice

B1: 5E1 monoclonal antibody (isotype IgG1) (antibody, V domains shown)
VH: EIQLQQSGTVLARPGASVKMSCKASGYTFTSYWMHWVKQRPGQGLEWIGAIYPGNGDTSYNRKFNGKAKLTAVTSTSTAYMEFSSLTNEDSAVYFCTRDYGSSYDYVMDYWGQGTSVTVSS
VL: DIQMTQSPSSLSASLGERVSLTCRASQDIGSSLNWLQQEPDGTIKRLIYATSSLDSGVPKRFSGSRSGSDYSLTISRLESEDFVDYYCLQYISSPLTFGAGTKLELK
notes: Murine monoclonal IgG1 from a hybridoma; also called 5E1 antibody; 5E1 anti-Notch3
[1]
  Kd: 55 nM
[2]
  percentage of target engagement: 100%
